Measurements from the supplement of paper PMC10567573.

B1: CCNC (parent)
chain: QSSHYLQWILDKQDLLKERQKDLK
B2: HDAC6 (parent)
chain: KMKTRELHRESSNFDSIYICPSTF

Variants of: B1
Assay: protein stability index of a GFP-peptide fusion (GPS, HEK-293T) (PSI 1-6); higher = more stable
Details: c terminus: a fixed tail appended
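Note: lentivirally expressed fusions sorted by FACS into six bins by GFP to DsRed ratio, PSI derived from sequencing read proportions per bin multiplied by bin number.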

Protein stability index of substitutions, site by site:
Q1: V 2.74, R 3.1, A 2.78, Y 2.53, W 1.44, K 2.5, G 3.6, N 3.13, H 2.04, L 2.78, C 3.1, S 3.16, I 2.28, P 3.77, D 2.94, E 2.72
S3: N 3.17, A 3.9, E 3.87, K 2.82, I 2.02, F 1.94, C 3.02, L 1.92, D 3.9, W 2.32, V 2.29, Y 2.34, P 3.22, R 3.04, Q 2.68, M 2.38, T 2.42, H 2.95, G 3.39
Q7: F 1.57, Y 2.85, N 2.84, T 3.66, K 2.84, L 2.22, E 2.73, G 3.23, I 1.94, A 2.39, W 2.1, S 2.65, M 3.79, P 3.31, H 3.58, V 1.97, C 2.42, D 3.9, R 2.37
W8: A 4.42, C 3.89
H4: S 3.2, K 2.54, L 2.34, V 2.5, I 2.09, C 2.22, P 2.72, W 2.65, R 2.39, Q 2.52, N 3.27, F 1.88, T 2.79, Y 3.21, E 3.5, D 3.55, G 3.03, M 3.97, A 3
Y5: I 2.81, E 3.21, L 2.02, W 2.53, T 3.7, F 2.77, H 3.93, C 3.61, D 4.45, R 3.38, Q 4.29, S 4.56, N 3.8, A 2.59, M 2.83, P 4.47, K 3.43, V 3.28, G 3.74
L6: D 4.14, V 3.7, M 3.21, G 4.11, H 3.69, Q 3.72, E 5.2, W 2.96, T 3.2, I 2.83, F 3.52, N 4.03, Y 2.77, P 4.53, S 3.99, C 3.71, A 3.83, K 3.92, R 3.54
S2: Y 1.96, R 2.39, W 2.7, N 3.15, I 2.07, Q 2.9, V 2.64, T 2.84, E 3.3, M 1.49, P 3.01, D 3.46, F 1.1, L 1.95, G 2.78, C 2.27, A 2.14, K 2.46, H 3.02

Variants of: B2
Assay: as above
Details: c terminus: a fixed tail appended

Protein stability index, by site and new letter:
F24: P 2.75, I 2.31, K 3.36, A 3.73, C 2.97, H 2.76, T 3.65, L 2.69, Y 2.88, E 3.87, Q 2.62, R 2.98, D 3.99, N 2.95, W 2.65, M 2.65, S 2.96, V 2.82, G 3.15
T23: H 2.28, E 1.96, R 2.05, W 1.62, G 2.46, F 1.96, M 2.44, K 2.25, S 2.59, N 3, D 2.56, Y 1.83, V 2.92, L 2.21, I 1.71, P 2.61
